Source: publication PMC12547689

How the values were obtained:
[1] = target: GFP-diS1 (sfGFP H148C) (Aequorea victoria) [GFP: P42212]; assay: fluorescence emission ratio (CRO–O^− : CRO–OH excitation); dimerisation kinetics with 1 mM CuSO4, 50 mM Tris–HCl pH 8, plate reader, excitation 388 nm and 483 nm, emission 516 nm; second order A + A → A2; apparent KD, estimated, non-equilibrium (covalent disulphide dimer); monomer to dimer
[2] = target: GFP-diS1 (sfGFP H148C) (Aequorea victoria) [GFP: P42212]; assay: fluorescence emission ratio (CRO–O^− : CRO–OH excitation); percentage of dimer after incubation with CuSO4 (1 mM; CuCl2 gave no discernible change for GFP-diS2), 50 mM Tris–HCl pH 8; monomer to disulphide-linked dimer
[3] = target: GFP-diS2 (sfGFP H148C V206F) (Aequorea victoria) [GFP: P42212]; assay: fluorescence emission ratio (CRO–O^− : CRO–OH excitation); dimerisation kinetics with 1 mM CuSO4, 50 mM Tris–HCl pH 8, plate reader, excitation 388 nm and 483 nm, emission 516 nm; second order A + A → A2; apparent KD, estimated, non-equilibrium (covalent disulphide dimer); monomer to dimer
[4] = target: GFP-diS2 (sfGFP H148C V206F) (Aequorea victoria) [GFP: P42212]; assay: fluorescence emission ratio (CRO–O^− : CRO–OH excitation); percentage of dimer after incubation with CuSO4 (1 mM; CuCl2 gave no discernible change for GFP-diS2), 50 mM Tris–HCl pH 8; monomer to disulphide-linked dimer

Row | Kd [1] | percent dimer after 1 h with CuSO4 [2] | Kd [3] | percent dimer with CuSO4 [4] | Substance
1 | > 25 µM | 55% | – | – | GFP-diS1 (sfGFP H148C) (from UniProt P42212 1-238)
2 | – | – | 4.6 µM | 80% | GFP-diS2 (sfGFP H148C V206F) (from UniProt P42212 1-238)
